According to the supplement of paper PMC9233669:
Variants at the floor of the assay were thinned out.

Experiments:
biotinyl-Trp-oxazolone = test: self-aminoacylation, catalytic enhancement (BWO) (fold over background); higher = more active; k-Seq, kA / k0A0; sequences stand for … in GGGAAUGGAUCCACAUCUACGAAUUC…UUCACUGCAGACUUGACGAAGCUG
Outline: (§1)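 Each biotinyl-aminoacyl-oxazolone, at 2–1250 μM, was incubated with mutagenized RNA pools (0.43 μM) carrying a 21-nt variable region. The 50 μL reactions contained HEPES/NaCl/KCl/MgCl2/CaCl2 buffer with 5% acetonitrile at pH 6.9–7.0 and ran for 90 minutes at room temperature. After streptavidin capture, RNA was measured by qPCR in triplicate and by Illumina sequencing, and catalytic enhancement was calculated as median kA over the uncatalyzed rate from a pseudo-first-order fit of per-sequence fraction reacted.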

biotinyl-Phe-oxazolone = test: self-aminoacylation, catalytic enhancement (BFO) (fold over background); higher = more active; k-Seq, kA / k0A0; sequences stand for … in GGGAAUGGAUCCACAUCUACGAAUUC…UUCACUGCAGACUUGACGAAGCUG
Outline: as §1

biotinyl-Ile-oxazolone = test: self-aminoacylation, catalytic enhancement (BIO) (fold over background); higher = more active; k-Seq, kA / k0A0; sequences stand for … in GGGAAUGGAUCCACAUCUACGAAUUC…UUCACUGCAGACUUGACGAAGCUG
Outline: as §1

biotinyl-Met-oxazolone = test: self-aminoacylation, catalytic enhancement (BMO) (fold over background); higher = more active; k-Seq, kA / k0A0; sequences stand for … in GGGAAUGGAUCCACAUCUACGAAUUC…UUCACUGCAGACUUGACGAAGCUG
Outline: as §1

biotinyl-Val-oxazolone = test: self-aminoacylation, catalytic enhancement (BVO) (fold over background); higher = more active; k-Seq, kA / k0A0; sequences stand for … in GGGAAUGGAUCCACAUCUACGAAUUC…UUCACUGCAGACUUGACGAAGCUG
Outline: as §1

biotinyl-Leu-oxazolone = test: self-aminoacylation, catalytic enhancement (BLO) (fold over background); higher = more active; k-Seq, kA / k0A0; sequences stand for … in GGGAAUGGAUCCACAUCUACGAAUUC…UUCACUGCAGACUUGACGAAGCUG
Outline: as §1

Sequence	self-aminoacylation (biotinyl-Trp-oxazolone)	self-aminoacylation (biotinyl-Phe-oxazolone)	self-aminoacylation (biotinyl-Ile-oxazolone)	self-aminoacylation (biotinyl-Met-oxazolone)	self-aminoacylation (biotinyl-Val-oxazolone)	self-aminoacylation (biotinyl-Leu-oxazolone)
AUUAACCUAGGUCGUCGGGUG [Fam2.2 aminoacylation ribozyme variant]	1.42	3.08	1.38	1.7	1.42	2.01
AUUAACCUAGGUGAUCGGGUG [Fam2.2 aminoacylation ribozyme variant]	2.9	8.95	2.31	3.25	2.1	3.63
AUUAACCUGGACAUCGAGUGA [Fam2.1 aminoacylation ribozyme variant]	8.58	32.9	2.99	6.63	2.89	6.88
AUUAACCUGGGCAUCGAGUGA [Fam2.1 aminoacylation ribozyme variant]	5.8	20.5	2.63	4.66	2.6	5.72
AUUAACCUGGUAAUCGAGUGA [Fam2.1 aminoacylation ribozyme variant]	11.3	52.9	3.86	8.82	4.05	9.73
AUUAACCUGGUCAUAGAGUGA [Fam2.1 aminoacylation ribozyme variant]	6.17	17.4	2.31	4.3	2.55	4.78
AUUAACCUGGUCAUCGAGCGA [Fam2.1 aminoacylation ribozyme variant]	1.37	1.01	1.79	1.88	1.5	1.68
AUUAACCUGGUCAUCGGGUGA [Fam2.1 aminoacylation ribozyme variant]	11	53.1	4.26	8.87	4.72	9.83
AUUAACCUGGUGAUCGAGUGA [Fam2.1 aminoacylation ribozyme variant]	8.53	25.7	3.62	6.03	3.16	6.66
AUUAAUCUGGUCAUCGAGUGA [Fam2.1 aminoacylation ribozyme variant]	6.95	15.6	3.24	4.7	2.88	5.01
AUUACACAGGUCAUCGAGUGA [Fam2.1 aminoacylation ribozyme variant]	5.05	8.1	2.5	3.66	2.44	3.37
AUUACACGGGUCAUCGAGUGA [Fam2.1 aminoacylation ribozyme variant]	5.36	21.7	2.64	4.62	3.1	4.33
AUUACACUGGCCAUCGAGUGA [Fam2.1 aminoacylation ribozyme variant]	5.64	15.9	3.13	6.45	3.07	6.8
AUUACACUGGUAAUCGAGUGA [Fam2.1 aminoacylation ribozyme variant]	8.34	30.4	4.09	7.53	3.38	8.16
AUUACACUGGUCAUCGAGUUA [Fam2.1 aminoacylation ribozyme variant]	1.38	0.876	1.18	1.05	1.02	1.09
AUUACACUGGUCAUCGGGUGA [Fam2.1 aminoacylation ribozyme variant]	9.23	59.4	5.02	9.88	5.51	9.65
AUUACCAUGGGCAUCGAGUGA [Fam2.1 aminoacylation ribozyme variant]	7.88	30.7	3	6.01	3.13	6.48
AUUACCAUGGUCACCGAGUGA [Fam2.1 aminoacylation ribozyme variant]	8.6	49.9	3.34	8.17	3.41	9.1
AUUACCAUGGUCAUAGAGUGA [Fam2.1 aminoacylation ribozyme variant]	10	37.6	4.13	8.44	3.51	8.72
AUUACCAUGGUCAUCCAGUGA [Fam2.1 aminoacylation ribozyme variant]	8	28.2	3.62	5.96	3.46	6.27
AUUACCAUGGUCAUCGAGCGA [Fam2.1 aminoacylation ribozyme variant]	1.64	1.04	1.73	2.24	1.79	1.98
AUUACCAUGGUCAUUGAGUGA [Fam2.1 aminoacylation ribozyme variant]	13.8	63.6	5.76	11.8	5.51	12.1

Sequence	self-aminoacylation (biotinyl-Trp-oxazolone)	self-aminoacylation (biotinyl-Phe-oxazolone)	self-aminoacylation (biotinyl-Ile-oxazolone)	self-aminoacylation (biotinyl-Met-oxazolone)	self-aminoacylation (biotinyl-Val-oxazolone)	self-aminoacylation (biotinyl-Leu-oxazolone)
AUUACCAUGGUCGUCGAGUGA [Fam2.1 aminoacylation ribozyme variant]	1.48	0.902	1.21	1.3	1.08	1.25
AUUACCAUUGUCAUCGAGUGA [Fam2.1 aminoacylation ribozyme variant]	10.4	40.4	4.32	7.41	4.25	8.46
AUUACCCAGGUCAGCGAGUGA [Fam2.1 aminoacylation ribozyme variant]	6.47	34.2	3.4	5.2	3.31	5.59
AUUACCCAGGUCAUCCAGUGA [Fam2.1 aminoacylation ribozyme variant]	6.41	24.2	3.13	5.32	3.14	5.76
AUUACCCAGGUCAUCGAGGGA [Fam2.1 aminoacylation ribozyme variant]	1.16	1.52	1.36	1.38	1.37	1.48
AUUACCCAGGUCAUCGAGUGC [Fam2.1 aminoacylation ribozyme variant]	0.852	0.417	0.777	0.643	0.958	0.919
AUUACCCAGGUCAUCGAGUGU [Fam2.1 aminoacylation ribozyme variant]	3.39	2.45	1.65	2.74	2.06	2.71
AUUACCCAGGUCAUUGAGUGA [Fam2.1 aminoacylation ribozyme variant]	10.4	53.1	4.59	8.2	4.36	9.04
AUUACCCAGGUCCUCGAGUGA [Fam2.1 aminoacylation ribozyme variant]	3.69	10.3	2.2	2.79	2.15	3.11
AUUACCCAGGUCGUCGAGUGA [Fam2.1 aminoacylation ribozyme variant]	0.416	0.686	0.849	0.786	0.951	0.669
AUUACCCCGGUCAGCGAGUGA [Fam2.1 aminoacylation ribozyme variant]	5.45	31.4	3.32	4.82	3.28	4.92
AUUACCCCGGUCAUCGAGAGA [Fam2.1 aminoacylation ribozyme variant]	1.07	1.03	0.935	0.8	0.651	0.708
AUUACCCCGGUCAUCGAGGGA [Fam2.1 aminoacylation ribozyme variant]	1.67	2.68	1.15	1.21	1.93	1.07
AUUACCCCGGUCAUCGAGUGU [Fam2.1 aminoacylation ribozyme variant]	3.57	9.98	1.56	2.58	1.87	2.45
AUUACCCCGGUCAUCGCGUGA [Fam2.1 aminoacylation ribozyme variant]	23.8	174	11.2	23.7	11.8	24.3
AUUACCCCGGUCCUCGAGUGA [Fam2.1 aminoacylation ribozyme variant]	4.82	25.5	2.29	3.32	2.21	3.97
AUUACCCCGGUCGUCGAGUGA [Fam2.1 aminoacylation ribozyme variant]	0.938	2.06	0.914	1.39	1	1.41
AUUACCCGCGUCAUCGAGUGA [Fam2.1 aminoacylation ribozyme variant]	5.55	24.9	2.37	4.55	2.8	4.6
AUUACCCGGGGCAUCGAGUGA [Fam2.1 aminoacylation ribozyme variant]	11.5	62.9	5.21	8.31	4.54	10.2
AUUACCCGGGUCACCGAGUGA [Fam2.1 aminoacylation ribozyme variant]	19.5	145	6.79	19.3	8.28	21.4
AUUACCCGGGUCAUCGAAUGA [Fam2.1 aminoacylation ribozyme variant]	0.515	0.592	1	0.972	1.29	1.25
